Measured values published in the DeepSol protein solubility set.

Experiment: soluble on expression in E. coli; label from the status in PepcDB or PDB records

| Sequence | soluble on expression in E. coli |
| --- | --- |
| MKEKKKEIEKLLARPDLTPEQMKNYGMEYAKIEEIENITNRIKETQEFIELLREEGENELEIEKYEKELDQLYQELLFLLSPEASDKAIVEIRPGTGGEEAALFARDLFRMYTRYAERKGWNLEVAEIHETDLGGIREVVFFVKGKNAYGILKYESGVHRVQRVPVTESGGRIHTSTATVAVLPEIEEKDIEIRPEDLKIETFRASGHGGQYVNKTESAVRITHLPTGIVVSCQNERSQYQNKQTALRILRARLYQLQKEQKEREISQKRKSQIGTGERSEKIRTYNFPQNRVTDHRINYTSYRLQEILDGDLDEIISKLIEHDIENNLEEVLGIGASVEEK | soluble |
| MKEKYRHSLKARFFLKDNFLKSEPVFWFHACSYGEVKSLEPIIHALKEPILISVTTNTGFELAAQTYQHSKHIEVRYLPFETLLFAWKKNLKRLKTLVVTEAELWFNVFDTAQKLGAKTMLINARISVRSYPKYQRFSFFYALLFKRIDLILAQSKEDKKRLLNLGAKKVVDFLNIKRFSKPLEHHHHHH | not soluble |
| MKESNSRREFLSQSGKMVTAAALFGTSVPLAHAAVAGTLNCEANNTMKITDPHYYLDNVLLETGFDYENGVAVQTRTARQTVEIQDGKIVALRENKLHPDATLPHYDAGGKLMLPTTRDMHIHLDKTFYGGPWRSLNRPAGTTIQDMIKLEQKMLPELQPYTQERAEKLIDLLQSKGTTIARSHCNIEPVSGLKNLQNLQAVLARRQAGFECEIVAFPQHGLLLSKSEPLMREAMQAGAHYVGGLDPTSVDGAMEKSLDTMFQIALDYDKGVDIHLHETTPAGVAAINYMVETVEKTPQLKGKLTISHAFALATLNEQQVDELANRMVVQQISIASTVPIGTLHMPLKQLHDKGVKVMTGTDSVIDHWSPYGLGDMLEKANLYAQLYIRPNEQNLSRSLFLATGDVLPLNEKGERVWPKAQDDASFVLVDASCSAEAVARISPRTATFHKGQLVWGSVAG | soluble |
| MKETEILNRAYNYMCTYHKDDATGHDIAHINRVLRLATYIAEQEQSQHMLTIQLASLLHDTVDSKLTNHEKALTKLKSFLKDLQLPKEQQQHILHIIKHISYRHGQNNEVSLTLEGQIVRDADRLDAIGAIGIARTFQFAGHFNEPMWVEHSTKHITETDDAHYDQWSPSAIKHFYEKLLKLKSLMHTETAKQLAAQRHQYMENFINQFFEEWYFLEHHHHHH | soluble |
| MKEYLTRSNISYFSIGSGTPIIFLHGLSLDKQSTCLFFEPLSNVGQYQRIYLDLPGMGNSDPISPSTSDNVLETLIEAIEEIIGARRFILYGHSYGGYLAQAIAFHLKDQTLGVFLTCPVITADHSKRLTGKHINILEEDINPVENKEYFADFLSMNVIINNQAWHDYQNLIIPGLQKEDKTFIDQLQNNYSFTFEEKLKNINYQFPFKIMVGRNDQVVGYQEQLKLINHNENGEIVLLNRTGHNLMIDQREAVGFHFDLFLDELNSNN | soluble |
| MKFGKTIAVVLASSVLLAGCTTDKKEIKAYLKQVDKIKDDEEPIKTVGKKIAELDEKKKKLTEDVNSKDTAVRGKAVKDLIKNADDRLKEFEKEEDAIKKSEQDFKKAKSHVDNIDNDVKRKEVKQLDDVLKEKYKLHSDYAKAYKKAVNSEKTLFKYLNQNDATQQGVNEKSKAIEQNYKKLKEVSDKYTKVLNKVGKEKQDVDQFK | soluble |
| MKFKSRVQMLNYVIGKKPDIMKTVDRRAEKEGVTDDNRLLDYKLLVISVLDAEAVYDEDRPIEEKKFSTSQEVDKYLETRFKEHMDSAWKEMFNK | not soluble |
| MKGEGVIVGILNKNFSLSKGDLDVVSLGEILVDMISTEEVNSLSQSREYTRHFGGSPANIAVNLSRLGKKVALISRLGADAFGNYLLDVLKGEQIITDGIQQDKERRTTIVYVSKSTRTPDWLPYREADMYLQEDDIIFELIKRSKVFHLSTFILSRKPARDTAIKAFNYAREQGKIVCFDPCYRKVLWPEGDDGAGVVEEIISRADFVKPSLDDARHLFGPDSPENYVKRYLELGVKAVILTLGEEGVIASDGEEIIRIPAFSEDAVDVTGAGDAFWSGFICGLLDGYTVKRSIKLGNGVAAFKIRGVGALSPVPSKEDIIKEYNI | soluble |
| MKGRWAKYVATGVMLAMLAACSSKPTDRGQQYKDGKFTQPFSLVNQPDAVGAPINAGDFAEQVDQIRSASPRLYTNQSNVYNAVQNWLRSGGDTRTMRQFGIDAWQMEGTDNYGNVQFTGYYTPVVQARHTRQGAFQYPIYSMPPKRGRLPSRAQIYAGALSDKYILAWSNSLMDNFIMDVQGSGYIDFGDGSPLNFFSYAGKNGWPYRSIGKVLIDRGEVKKEDMSMQAIREWGEKHSEAEVRELLEQNPSFVFFKPQSFAPVKGASAVPLIGRASVASDRSIIPPGTTLLAEVPLLDNNGKFSGQYELRLMVALDVGGAIKGQHFDIYQGIGPDAGHRAGWYNHYGRVWVLKSAPGAGNVFSG | soluble |
| MKHFRKELWFETRQRRQFINITPTVRECLRESGIREGLLLCNAMHITASVFINDDESGLHHDFEVWLEGLAPEKPYDRYRHNGYEDNADAHLKRTVMGREVVVAVTAGELDLGPWEQIFYGEFDGKRRKRVLIKIIGELEHHHHHH | not soluble |
| MKHHHHHPMVPSYDSFDSEDYPAALPNHKPKGTFKDYVRDRADLNKDKPVIPAAALAGYTGSGPIQLWQFLLELLTDKSSQSFISWTGDGWEFKLSDPDEVARRWGKRKNKPKMNYEKLSRGLRYYYDKNIIHKTAGKRYVYRFVSDLQSLLGYTPEELHAMLDVKPDADE | soluble |
| MKHSHEEIRKIIPEMRRVQQIHFIGIGGAGMSGIAEILLNEGYQISGSDIADGVVTQRLAQAGAKIYIGHAEEHIEGASVVVVSSAIKDDNPELVTSKQKRIPVIQRAQMLAEIMRFRHGIAVAGTHGKTTTTAMISMIYTQAKLDPTFVNGGLVKSAGKNAHLGASRYLIAEADESDASFLHLQPMVSVVTNMEPDHMDTYEGDFEKMKATYVKFLHNLPFYGLAVMCADDPVLMELVPKVGRQVITYGFSEQADYRIEDYEQTGFQGHYTVICPNNERINVLLNVPGKHNALNATAALAVAKEEGIANEAILEALADFQGAGRRFDQLGEFIRPNGKVRLVDDYGHHPTEVGVTIKAAREGWGDKRIVMIFQPHRYSRTRDLFDDFVQVLSQVDALIMLDVYAAGEAPIVGADSKSLCRSIRNLGKVDPILVSDTSQLGDVLDQIIQDGDLILAQGAGSVSKISRGLAESWKN | soluble |
| MKIAGLKQLNTALKEAASGGFSRQASRWLEECGQDFLEIVQSELISTQTIDTEKLLSSFEKGAEDNLWIVQSGGLSLEVGTQLDYASFLNDGHWTSKQDVRWVPGRFQGSRFIYDPAASTGMALKRKWIPGTGYWDHALLLYEQLFEKSLESKLRQWLKKL | not soluble |
| MKIALINENSQASKNHIIYDSLKEATDKKGYQLFNYGMRGEEGESQLTYVQNGLMAAILLNTKAVDFVVTGCGTGVGAMLALNSFPGVVCGLAVDPTDAYLYSQINGGNALSIPYAKGFGWGAELTLKLMFERLFAEEMGGGYPRERVIPEQRNARILNEVKQITHNDLMTILKIIDQDFLKDTISGKYFQEYFFENCQDDEVAAYLKEVLA | not soluble |
| MKIAYLGPKGSFSHHVVQTAFPHEELQAFANITDVIKAYEQGLVNYSVVPVENSIEGSVHETLDYLFHQAHIQAVAEIVQPIHQQLMVVPGHTKIEKIFSHPQALAQGKKFIDEQYPEAQIEVTASTAYAARFISEHPDQPFAAVAPRSSAEEYGLELIAEDIQEMEANFTRFWVLGAEKPSIPLQAQTEKMSLALTLPDNLPGALYKALSTFAWRGIDLTKIESCPLKTALGEYFFIIDVDYTDKDLVHFAQKELEAIGIQYKILGAYPIYPISDHGKERR | soluble |
| MKIGIIGAMQQEVAILKDLIEDVQEVNQAGCTFYSGQIQGVDVVLLQSGIGKVSAALGTALLISQYAPDVVINTGSAGGFDASLNVGDVVISSEVRHHDADVTAFGYEIGQMAGQPAAFKADEKLMTVAEQALAQLPNTHAVRGLICTGDAFVCTAERQQFIRQHFPSVVAVEMEASAIAQTCHQFKVPFVVVRAISDVADKESPLSFEEFLPLAAKSSSAMVLKMVELLK | soluble |
| MKIIILHGLYMHGLVMQPLSQKLRKLGYETQVLSYNTVAIDESSLFDSIDHSLNPLTANVLVGHSLGGLMIKRYLANRKPTTSLISHVVAIGSPLKGASIVGRIQDLGLGAILGNSPHHGLNKHHDAWAFPQKLGSIAGTVPIGARPLLIRNDNTMSDGTVTVEETRLDGMQDHIEVKQTHTSLIYNTFVPQQIDHFIRTDYFCR | not soluble |
| MKIKACIFDMDGTLVNSIMDIAFSMNSALSNLGYSKIELSKFNALVGRGFNKFVIDTLKLLSLEHDNPNLQEKLYKEFVKEYNKNLSFQTKPYENIKPLLETMNKLNIPIGILSNKNHEELINLVKNIFGNILFFEIRGYSKNFPPKPDPENALDMILELNAQKEEIAYIGDSDVDMLTALNAGFMPIGVSWGFRSVQELKESGAKHIIHNPLELLDLIK | not soluble |
| MKIKSIRKAVLLLALLTSTSFAAGKNVNVEFRKGHSSAQYSGEIKGYDYDTYTFYAKKGQKVHVSISNEGADTYLFGPGIDDSVDLSRYSPELDSHGQYSLPASGKYELRVLQTRNDARKNKTKKYNVDIQIK | soluble |
| MKILVYGINYSPELTGIGKYTGEMVEWLAAQGHEVRVITAPPYYPQWQVGENYSAWRYKREEGAATVWRCPLYVPKQPSTLKRLLHLGSFAVSSFFPLMAQRRWKPDRIIGVVPTLFCAPGMRLLAKLSGARTVLHIQDYEVDAMLGLGLAGKGKGGKVAQLATAFERSGLHNVDNVSTISRSMMNKAIEKGVAAENVIFFPNWSEIARFQHVADADVDALRNQLDLPDNKKIILYSGNIGEKQGLENVIEAADRLRDEPLIFAIVGQGGGKARLEKMAQQRGLRNMQFFPLQSYDALPALLKMGDCHLVVQKRGAADAVLPSKLTNILAVGGNAVITAEAYTELGQLCETFPGIAVCVEPESVEALVAGIRQALLLPKHNTVAREYAERTLDKENVLRQFINDIRG | soluble |
| MKIQCDVCEKAPATVICCADEAALCPQCDIEIHAANKLASKHQRLHLNSLSTKFPRCDICQEKAAFIFCVEDRALLCRDCDESIHVANSRSANHQRFLATGIKVALTSTICSKEIEKNQPEPSNNQQKANQIPAKSTSQQQQQPSSATPLPWAVDDFFHFSDIESTDKKGQLDLGAGELDWFSDMGFFGDQINDKALPAAEVPELSVSHLGHVHSYKPMKSNVSHKKPRFETRYDDDDEEHFIVPDLG | not soluble |
| MKISTQSEVEGVLIKALSEGKGIQHVELALKDLPAFDRKRARTTAITEVLTAASVAQQEAFEQSPSVEGKKWKHSGGKGIEPRSSHIELSGKVVQINETFTIPGSGELAKYPRDTDLSASERIHCHCALGPAVNEEIL | not soluble |
| MKIVFLECSVELVPRSLWSHPQVLKSARRYGIEPGDLLLDKSLHYNAMAELPAKWKRGRPDILHVALLTTTDSPLYNEGLLRIYFQVYDGRLFEVGTGVRVPKNYERFRGLVAQLLKTERVPPGEGEALIRLHSRSLAEFVEREGRFILMWEKGSPTTTTYVAARALSTGLPIGVGCFPRGEFKRSTLRKASEAYSIMGGAPLKTWGVASRIVYALERLKSPFTLEHHHHHH | soluble |
| MKIVIIGGFLGGGKTTVLNHLLAESLKESLKPAVIMNEFGKMSVDGALVSEDIPLSELTEGCICCAMKADVSEQLHQLYLKEQPDIVFIECSGIAEPVSVLDACLTPILAPFTTITHMIGVIDASMYKHIKSFPKDIQGLFYEQLAYCSVLFVNKIDSADVETTSKLLKDLEVINPEADIQVGMHGSVTLPISVRQMTATSDNKHESLHKTINHQFVQSPVTCTKAEFIKRLACLPSHIYRLKGFMTFEDTTHTYLIQFTQGQYELTPVAFSKKVPEYLVLIGKGISKEDYQCLEQLEHHHHHH | not soluble |
